From patent US20110206701A1 (AbbVie / Abbott, published 2011) come the findings set out here.

The target in this experiment is T1, CS1 (CD2-subset 1) (human, UniProt Q9NQ25 23-335).
T1 construct: whole, on cells; In the immunohistochemistry the protein stood in formalin-fixed, paraffin-embedded tissue sections; also called SLAMF7; CRACC
Description: flow cytometry on normal blood NK and NK/T cells, directly conjugated antibody.

B1: HuLuc63 (elotuzumab), humanized anti-CS1 antibody (antibody, V domains shown)
VH: EVQLVESGGGLVQPGGSLRLSCAASGFDFSRYWMSWVRQAPGKGLEWIGEINPDSSTINYAPSLKDKFIISRDNAKNSLYLQMNSLRAEDTAVYYCARPDGNYWYFDVWGQGTLVTVSS
VL: DIQMTQSPSSLSASVGDRVTITCKASQDVGIAVAWYQQKPGKVPKLLIYWASTRHTGVPDRFSGSGSGTDFTLTISSLQPEDVATYYCQQYSSYPYTFGQGTKVEIK
As to B1, the binding result is “binds”.
